Here are results for two substances from IntAct's records for PubMed 20562859.

One assay deals with T1, tcpr2_human TECPR2 (UniProt O15040).
T1 sequence: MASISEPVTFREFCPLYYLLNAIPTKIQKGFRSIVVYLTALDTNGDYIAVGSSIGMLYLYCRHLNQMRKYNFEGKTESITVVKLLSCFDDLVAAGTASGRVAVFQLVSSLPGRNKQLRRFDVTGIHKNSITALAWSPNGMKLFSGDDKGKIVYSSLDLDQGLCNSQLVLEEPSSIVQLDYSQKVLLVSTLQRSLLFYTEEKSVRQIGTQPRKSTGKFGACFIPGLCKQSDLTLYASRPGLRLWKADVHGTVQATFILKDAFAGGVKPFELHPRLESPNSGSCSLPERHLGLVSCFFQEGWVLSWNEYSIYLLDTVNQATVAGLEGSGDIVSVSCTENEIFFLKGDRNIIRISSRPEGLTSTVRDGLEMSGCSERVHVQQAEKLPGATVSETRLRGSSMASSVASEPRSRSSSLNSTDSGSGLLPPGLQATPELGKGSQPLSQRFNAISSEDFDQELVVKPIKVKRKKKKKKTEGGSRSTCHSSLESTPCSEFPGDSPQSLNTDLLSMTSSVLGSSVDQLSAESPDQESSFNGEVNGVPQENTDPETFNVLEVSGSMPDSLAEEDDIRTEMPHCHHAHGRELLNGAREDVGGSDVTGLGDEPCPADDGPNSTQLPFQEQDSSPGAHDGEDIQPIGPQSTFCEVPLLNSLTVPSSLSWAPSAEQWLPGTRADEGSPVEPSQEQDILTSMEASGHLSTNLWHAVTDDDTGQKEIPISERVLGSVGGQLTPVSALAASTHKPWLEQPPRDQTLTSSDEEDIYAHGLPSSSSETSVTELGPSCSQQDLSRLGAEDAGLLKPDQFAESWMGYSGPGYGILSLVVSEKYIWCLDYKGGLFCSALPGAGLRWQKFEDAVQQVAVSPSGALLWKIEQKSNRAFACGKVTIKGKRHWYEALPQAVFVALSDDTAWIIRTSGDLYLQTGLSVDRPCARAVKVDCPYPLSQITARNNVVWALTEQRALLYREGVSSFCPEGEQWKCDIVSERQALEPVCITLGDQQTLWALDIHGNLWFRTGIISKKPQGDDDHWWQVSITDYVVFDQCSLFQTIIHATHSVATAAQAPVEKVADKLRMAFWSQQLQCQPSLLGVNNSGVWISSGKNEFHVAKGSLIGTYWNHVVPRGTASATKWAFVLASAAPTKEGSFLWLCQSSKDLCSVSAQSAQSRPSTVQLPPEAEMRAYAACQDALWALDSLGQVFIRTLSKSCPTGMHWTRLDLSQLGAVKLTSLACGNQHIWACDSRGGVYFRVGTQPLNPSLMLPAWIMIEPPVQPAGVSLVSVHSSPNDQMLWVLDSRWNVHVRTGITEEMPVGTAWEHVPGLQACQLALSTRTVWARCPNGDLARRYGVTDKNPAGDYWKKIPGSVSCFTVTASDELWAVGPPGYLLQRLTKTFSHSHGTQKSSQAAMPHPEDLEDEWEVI

The target in the next assay is nedd4_human NEDD4 (UniProt P46934).
The next assay addresses T2, rn123_human RNF123 (UniProt Q5XPI4).
T2 sequence: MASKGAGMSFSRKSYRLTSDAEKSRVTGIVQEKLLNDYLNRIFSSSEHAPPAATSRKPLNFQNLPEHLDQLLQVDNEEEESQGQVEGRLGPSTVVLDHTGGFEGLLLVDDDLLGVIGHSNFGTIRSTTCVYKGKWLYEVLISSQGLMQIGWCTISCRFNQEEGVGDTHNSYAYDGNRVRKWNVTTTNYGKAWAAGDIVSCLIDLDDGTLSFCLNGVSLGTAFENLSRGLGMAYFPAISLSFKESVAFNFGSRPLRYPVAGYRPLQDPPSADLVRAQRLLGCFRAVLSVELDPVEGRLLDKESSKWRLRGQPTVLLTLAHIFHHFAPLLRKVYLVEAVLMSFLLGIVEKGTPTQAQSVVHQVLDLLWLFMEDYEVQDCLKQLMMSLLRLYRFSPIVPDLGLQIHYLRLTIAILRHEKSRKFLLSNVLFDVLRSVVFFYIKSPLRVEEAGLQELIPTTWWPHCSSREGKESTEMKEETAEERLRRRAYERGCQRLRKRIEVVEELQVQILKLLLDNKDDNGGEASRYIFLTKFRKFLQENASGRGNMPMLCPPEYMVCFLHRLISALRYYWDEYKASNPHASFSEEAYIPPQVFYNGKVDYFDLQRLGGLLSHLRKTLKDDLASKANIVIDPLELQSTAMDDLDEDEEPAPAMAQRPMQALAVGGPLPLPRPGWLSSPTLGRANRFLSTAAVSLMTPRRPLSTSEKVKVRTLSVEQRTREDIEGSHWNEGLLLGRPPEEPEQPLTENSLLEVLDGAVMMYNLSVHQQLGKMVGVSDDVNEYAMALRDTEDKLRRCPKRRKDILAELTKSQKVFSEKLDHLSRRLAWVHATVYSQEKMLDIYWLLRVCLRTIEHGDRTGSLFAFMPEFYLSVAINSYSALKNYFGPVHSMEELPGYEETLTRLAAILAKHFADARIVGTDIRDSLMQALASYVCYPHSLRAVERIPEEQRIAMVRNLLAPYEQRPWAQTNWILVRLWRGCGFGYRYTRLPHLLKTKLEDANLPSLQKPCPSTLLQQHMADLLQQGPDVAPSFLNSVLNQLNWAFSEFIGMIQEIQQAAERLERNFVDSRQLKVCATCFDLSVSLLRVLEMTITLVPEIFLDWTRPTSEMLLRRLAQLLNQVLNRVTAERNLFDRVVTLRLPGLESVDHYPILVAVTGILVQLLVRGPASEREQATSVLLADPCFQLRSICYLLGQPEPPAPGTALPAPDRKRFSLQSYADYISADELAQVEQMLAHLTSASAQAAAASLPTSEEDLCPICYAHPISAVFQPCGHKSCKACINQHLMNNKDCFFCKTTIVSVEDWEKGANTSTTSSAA

Chain of nedd4_human NEDD4 (P46934 whole entry): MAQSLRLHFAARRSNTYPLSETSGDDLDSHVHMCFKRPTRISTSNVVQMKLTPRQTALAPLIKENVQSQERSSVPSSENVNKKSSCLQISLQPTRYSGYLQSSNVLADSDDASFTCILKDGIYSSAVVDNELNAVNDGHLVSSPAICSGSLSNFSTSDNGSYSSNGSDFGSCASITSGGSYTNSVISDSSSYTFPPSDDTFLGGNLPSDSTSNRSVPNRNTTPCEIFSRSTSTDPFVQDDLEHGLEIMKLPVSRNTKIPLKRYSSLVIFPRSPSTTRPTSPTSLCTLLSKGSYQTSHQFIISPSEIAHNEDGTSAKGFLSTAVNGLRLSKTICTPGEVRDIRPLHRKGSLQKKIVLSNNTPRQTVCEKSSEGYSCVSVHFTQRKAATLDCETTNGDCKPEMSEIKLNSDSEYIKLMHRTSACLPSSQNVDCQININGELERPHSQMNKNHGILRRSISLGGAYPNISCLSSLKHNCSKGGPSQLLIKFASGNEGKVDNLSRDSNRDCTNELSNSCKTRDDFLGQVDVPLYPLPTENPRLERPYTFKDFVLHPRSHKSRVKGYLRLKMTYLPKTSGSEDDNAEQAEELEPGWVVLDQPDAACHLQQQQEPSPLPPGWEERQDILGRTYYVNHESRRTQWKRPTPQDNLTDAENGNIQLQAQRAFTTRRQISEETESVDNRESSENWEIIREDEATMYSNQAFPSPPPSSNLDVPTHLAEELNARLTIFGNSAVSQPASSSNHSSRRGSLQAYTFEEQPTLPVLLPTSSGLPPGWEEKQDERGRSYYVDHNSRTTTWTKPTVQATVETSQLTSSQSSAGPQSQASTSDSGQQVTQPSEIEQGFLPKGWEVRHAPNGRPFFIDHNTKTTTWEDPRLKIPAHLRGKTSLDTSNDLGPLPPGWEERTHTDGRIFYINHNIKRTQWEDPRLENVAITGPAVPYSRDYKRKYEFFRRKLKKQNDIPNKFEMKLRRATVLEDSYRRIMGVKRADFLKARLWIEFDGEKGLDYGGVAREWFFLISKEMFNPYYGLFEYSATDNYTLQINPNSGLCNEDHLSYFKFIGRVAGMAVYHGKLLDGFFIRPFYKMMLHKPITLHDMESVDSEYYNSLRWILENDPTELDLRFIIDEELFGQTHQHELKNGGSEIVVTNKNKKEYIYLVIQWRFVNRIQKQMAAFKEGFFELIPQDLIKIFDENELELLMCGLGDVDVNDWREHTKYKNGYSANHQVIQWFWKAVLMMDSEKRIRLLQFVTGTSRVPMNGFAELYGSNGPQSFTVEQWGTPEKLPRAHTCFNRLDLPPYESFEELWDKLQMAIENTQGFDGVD

For “Microtubule-associated protein 1 light chain 3 beta (Homo sapiens) (from UniProt Q9GZQ8) F52A;L53A”, the “effect of a mutation on the interaction” value is given as “decreasing interaction” with tcpr2_human TECPR2, “decreasing interaction” with nedd4_human NEDD4 and “increasing interaction” with rn123_human RNF123.

As for “Microtubule-associated protein 1 light chain 3 beta (Homo sapiens) (from UniProt Q9GZQ8) R69A”, the “effect of a mutation on the interaction” value with tcpr2_human TECPR2 is “disrupting interaction”; with nedd4_human NEDD4 it was “decreasing interaction”; in the assay with rn123_human RNF123, “decreasing interaction”.
